Measured values reported in patent publication US20230416363A1 (KADMON, published 2023).

Legend:
hPD-1-Fc [1] = biological target: T1, hPD-1-Fc (human, UniProt Q15116 25-167); test: SPR, Exp. 1
T1 construct: domain: IgV domain; also called human PD-1-Fc; not shown: human IgG1 Fc

hPD-1-his [2] = biological target: T2, hPD-1-his (human, UniProt Q15116 25-167); test: SPR, Exp. 1
T2 construct: domain: IgV domain; monomer in solution; biotin-labelled where captured by streptavidin; also called biotin-hPD-1-his

hPD-1-Fc [3] = biological target: T1, hPD-1-Fc; test: SPR, Exp. 2
hPD-1-his [4] = biological target: T2, hPD-1-his; test: SPR, Exp. 2
hPD-1-Fc [5] = biological target: T1, hPD-1-Fc; test: SPR, Exp. 3
hPD-1-his [6] = biological target: T2, hPD-1-his; test: SPR, Exp. 3
hPD-1-his [7] = biological target: T2, hPD-1-his; test: SPR, Exp. 4
[8] = biological target: T3, hPD1 (soluble, ELISA of Example 20) (human, UniProt Q15116 25-167, limits assumed); test: ELISA, hPD1
[9] = biological target: T4, mPD1 (soluble, ELISA of Examples 20 and 24) (mouse, UniProt Q02242 25-167, limits assumed); test: ELISA, mPD1
T4 construct: also called Biotin-mPD1
T4 sequence (looked up): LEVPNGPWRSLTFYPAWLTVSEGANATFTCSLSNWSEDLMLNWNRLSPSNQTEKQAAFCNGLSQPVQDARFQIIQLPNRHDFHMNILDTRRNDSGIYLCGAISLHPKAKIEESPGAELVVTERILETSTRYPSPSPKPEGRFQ

mPD-1-Fc = biological target: T5, mPD-1-Fc (mouse; human, UniProt Q02242 25-167, limits assumed); test: SPR Biacore
T5 construct: domain: IgV domain; not shown: human IgG1 Fc
T5 sequence (looked up): T4 sequence (looked up)

mPD-1-his = biological target: T6, mPD-1-his (mouse, UniProt Q02242 25-167, limits assumed); test: SPR Biacore
T6 construct: domain: IgV domain
T6 sequence: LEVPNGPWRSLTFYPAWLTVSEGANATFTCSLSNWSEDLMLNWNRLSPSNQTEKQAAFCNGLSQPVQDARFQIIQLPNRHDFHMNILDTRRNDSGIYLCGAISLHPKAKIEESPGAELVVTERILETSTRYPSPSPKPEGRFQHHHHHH

[10] = biological target: T7, human PD-1 expressed on cells (human, UniProt Q15116 25-288); test: cell-based or functional assay
hPD-1-Fc [11] = biological target: T1, hPD-1-Fc; test: SPR Biacore, hPD1-Fc
hPD-1-Fc [12] = biological target: T1, hPD-1-Fc; test: ELISA, PD-1-Fc coated
hPD-1-Fc [13] = biological target: T1, hPD-1-Fc; test: ELISA, hPD-1-Fc coated
[14] = biological target: T7, human PD-1 expressed on cells; test: cell-based or functional assay; remark: listed apart in the source
[15] = biological target: T7, human PD-1 expressed on cells; test: cell-based or functional assay; remark: listed apart in the source
hPD-1-his [16] = biological target: T2, hPD-1-his; test: ELISA, PD-1-his on anti-his
hPD-1-his [17] = biological target: T2, hPD-1-his; test: ELISA, PD-1-his on anti-his; remark: listed apart in the source
hPD-1-Fc [18] = biological target: T1, hPD-1-Fc; test: SPR, range over experiments
hPD-1-Fc [19] = biological target: T1, hPD-1-Fc; test: blocking ELISA, PD-1 to PD-L1
hPD-1-Fc [20] = biological target: T1, hPD-1-Fc; test: blocking ELISA, PD-1 to PD-L2
[21] = biological target: T3, hPD1 (soluble, ELISA of Example 20); test: blocking ELISA, hPD1 to hPDL1
[22] = biological target: T7, human PD-1 expressed on cells; test: flow cytometry, hPD1-293 cells
[23] = biological target: T7, human PD-1 expressed on cells; test: flow cytometry, hPD1-293 cells; remark: listed apart in the source
[24] = biological target: T7, human PD-1 expressed on cells; test: cell-based or functional assay; remark: listed apart in the source
hPD-1-his [25] = biological target: T2, hPD-1-his; test: ELISA, PD-1-his on streptavidin
hPD-1-Fc [26] = biological target: T1, hPD-1-Fc; test: blocking ELISA, hPD-1 to hPD-L1; set-up: unit not given here
[27] = biological target: T7, human PD-1 expressed on cells; test: flow cytometry, hPD-1-293 cells
[28] = biological target: T7, human PD-1 expressed on cells; test: flow cytometry, hPD1-Jurkat cells
[29] = biological target: T7, human PD-1 expressed on cells; test: flow cytometry, hPD1-Jurkat cells; remark: listed apart in the source
[30] = biological target: T7, human PD-1 expressed on cells; test: flow cytometry, hPD-1-Jurkat cells
hPD-1-Fc [31] = biological target: T1, hPD-1-Fc; test: SPR Biacore T200, PD-1-Fc immobilised
hPD-1-his [32] = biological target: T2, hPD-1-his; test: SPR Biacore T200, PD-1-his immobilised
hPD-1-his [33] = biological target: T2, hPD-1-his; test: ELISA, biotin-PD-1-his on streptavidin
[34] = biological target: T7, human PD-1 expressed on cells; test: flow cytometry, activated PBMC donor FA
[35] = biological target: T7, human PD-1 expressed on cells; test: flow cytometry, activated PBMC donor two
[36] = biological target: T7, human PD-1 expressed on cells; test: flow cytometry, SEB-activated PBMC donor
[37] = biological target: T7, human PD-1 expressed on cells; test: flow cytometry, SEB-activated PBMC donor two

T2 sequence (Q15116 other isoform, or with tags, fused parts or gaps limits assumed): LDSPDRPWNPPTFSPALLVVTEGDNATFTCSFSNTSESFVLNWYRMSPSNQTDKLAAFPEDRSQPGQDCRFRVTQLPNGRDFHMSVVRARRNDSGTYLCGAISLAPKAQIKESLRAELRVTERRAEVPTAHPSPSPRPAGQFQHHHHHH
T7 sequence (Q15116 25-288): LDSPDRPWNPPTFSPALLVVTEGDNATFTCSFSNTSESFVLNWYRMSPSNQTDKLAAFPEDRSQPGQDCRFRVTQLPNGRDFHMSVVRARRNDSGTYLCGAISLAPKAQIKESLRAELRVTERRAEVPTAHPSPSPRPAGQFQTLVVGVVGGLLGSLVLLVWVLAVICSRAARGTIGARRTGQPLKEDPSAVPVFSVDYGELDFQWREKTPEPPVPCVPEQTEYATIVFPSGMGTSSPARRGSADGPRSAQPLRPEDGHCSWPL
T1 sequence (Q15116 25-167 limits assumed): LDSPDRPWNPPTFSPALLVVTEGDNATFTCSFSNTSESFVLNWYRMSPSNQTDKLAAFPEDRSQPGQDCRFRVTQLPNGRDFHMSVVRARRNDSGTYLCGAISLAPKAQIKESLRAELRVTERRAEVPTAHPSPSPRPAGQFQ
T3 sequence (Q15116 25-167 limits assumed): as above

B1: 38B2 (antibody, V domains shown)
VH: EVQLLESGGGLVQPGGSLRLSCAASGFTFSSYWMSWVRQAPGKGLEWVSAISGSGGSTYYADSVKGRFTISRDNSKNTLYLQMNSLRAEDTAVYYCASSPLQWVDVWGQGTTVTVSS
VL: DIQMTQSPSSLSASVGDRVTITCRASESISSWLAWYQQKPGKAPKLLIYDASSLESGVPSRFSGSGSGTDFTLTISSLQPEDFATYYCQQGDSFPFTFGQGTKLEIK
notes: 24H9 derivative, IgG; also called 780_54; hPD1 Ab (38B2)
Kd (hPD-1-Fc [1]): < 33 pM | Kd (hPD-1-his [2]): 946 pM | Kd (hPD-1-Fc [3]): < 10 pM | Kd (hPD-1-his [4]): 423 pM | Kd (hPD-1-Fc [5]): < 10 pM | Kd (hPD-1-his [6]): 932 pM | Kd (hPD-1-his [7]): 205 pM | EC50 [8]: 125 pM | binding result [9]: no binding | binding result (mPD-1-Fc): no binding | binding result (mPD-1-his): no binding | EC50 averaged from two experiments, Promega blockade bioassay [10]: 0.154 µg/mL | IC50, Promega blockade bioassay [10]: 725 pM | Kd (hPD-1-Fc [11]): 147 pM | koff (hPD-1-Fc [11]): 3.26e-05 s⁻¹ | kon (hPD-1-Fc [11]): 221000 M⁻¹ s⁻¹ | EC50 (hPD-1-Fc [12]): 96 pM | OD at 10 nM (hPD-1-Fc [13]): 1.05 OD | EC50, Promega blockade bioassay [14]: 0.154 µg/mL | Fold induction [14]: 6.54 fold | EC50, Promega blockade bioassay, Exp. 1 [15]: 0.189 µg/mL | EC50, Promega blockade bioassay, Exp. 2 [15]: 0.135 µg/mL | Fold induction at 12 µg/ml, Exp. 1 [15]: 7.61 fold | Fold induction at 12 µg/ml, Exp. 2 [15]: 8.31 fold | OD at 10 nM (hPD-1-his [16]): 0.662 OD | EC50 (hPD-1-his [17]): 60 pM | Kd (hPD-1-Fc [18]): 10 to 30 pM | IC50 (hPD-1-Fc [19]): 2370 pM | Inhibition % at 50 nM (hPD-1-Fc [19]): 93.9% | Inhibition, % at 5.56 nM (hPD-1-Fc [19]): 92.7% | IC50 (hPD-1-Fc [20]): 1930 pM | Inhibition, % at 3.7 nM (hPD-1-Fc [20]): 93.9% | Inhibition, % at 100 nM (hPD-1-Fc [20]): 95.1% | IC50 [21]: 4250 pM | EC50 [22]: 120 pM | MFI at 5 nM [22]: 118 MFI | EC50 [23]: 267 pM | EC50 (read off the curve) [24]: ~500 pM | OD at 10 nM (hPD-1-his [25]): 1.04 OD | Inhibition at 50 nM (hPD-1-Fc [26]): 93.4 | MFI, 5 nM [27]: 297 MFI | EC50 [28]: 160 pM | MFI at 5 nM [28]: 91 MFI | EC50 [29]: 137 pM | MFI, 5 nM [30]: 60.8 MFI | Kd (hPD-1-Fc [31]): 249 pM | Kd (hPD-1-his [32]): 318 pM | EC50 (hPD-1-his [33]): 81 pM | EC50 [34]: 150 pM | MFI at 25 nM [34]: 16.6 MFI | EC50 [35]: 100 pM | MFI at 25 nM [35]: 16.7 MFI | MFI, 5 nM [36]: 64.2 MFI | MFI, 5 nM [37]: 55.3 MFI
